Measurements: patent US20260125472A1 (HEFEI TG IMMUNOPHARMA, published 2026)

Key:
[1] = molecular target: T1, PDL1 on A-375 melanoma cells, HCT-15 colorectal cancer cells and A549 lung cancer cells (UniProt Q9NZQ7 19-290, limits assumed); assay: flow cytometry, A549 cells, MFI [panel B]
T1 construct: whole, on cells
How it was run: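 Cells were blocked with goat serum at 4° C for 30 min, then incubated with serially diluted bispecific antibodies or hIgG1LALA control at 4° C for 30 min. Bound antibody was detected with Alexa-647 anti-human IgG (4° C, 30 min, dark) and read by flow cytometry.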

PDL1 protein [2] = molecular target: T2, PDL1 protein (UniProt Q9NZQ7 19-238); assay: ELISA, coated PDL1 protein, OD450 [panels A, B]
T2 construct: Bought recombinant protein
T2 sequence (Q9NZQ7 19-238 limits assumed): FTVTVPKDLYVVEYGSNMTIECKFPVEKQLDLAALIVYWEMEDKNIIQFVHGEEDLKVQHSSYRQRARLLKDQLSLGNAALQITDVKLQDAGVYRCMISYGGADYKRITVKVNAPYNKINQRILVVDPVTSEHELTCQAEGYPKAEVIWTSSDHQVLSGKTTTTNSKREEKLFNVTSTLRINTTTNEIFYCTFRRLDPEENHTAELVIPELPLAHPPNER
Method: (3) PDL1 protein (purchased from Acro) was diluted to 2 μg/ml with PBS buffer, added to a 96-well plate at a volume of 100 μL/well, and placed at 4° C. overnight. The PBS buffer in the 96-well plate was aspirated, and the plate was washed 6 times with PBST (pH 7.2 PBS containing 0.10% Tween 20) buffer. Then, PBS/10% BSA was added at 200 μL/well and incubated at 37° C. for 2 h for blocking. The blocking solution was removed, and the plate was washed six times with PBST. Then, the to-be-tested bispecific antibodies serially diluted with PBST/0.05% BSA, Cross3×PDL1, Cross303×PDL1, Cross307×PDL1, Cross308×PDL1, Cross309×PDL1, Cross310×PDL1, Cross311×PDL1, Cross312×PDL1, Cross313×PDL1, Cross314×PDL1, Cross316×PDL1, Cross317×PDL1, Cross318×PDL1, Cross323×PDL1, Cross325×PDL1, Cross326×PDL1, and control IgG1LALA (purchased from Bio-Tech) were added at 100 μL/well, and incubated at 37° C. for 1 h. The reaction system was removed, and the plate was washed 6 times with PBST. Then, the cells were incubated at 37° C. for 1 h with HRP (horseradish peroxidase)-labeled anti-human secondary antibody (Fab specific) (purchased from Sigma) serially diluted with PBST/0.05% BSA at 100 μL/well. After the plate was washed six times with PBST, TMB (tetramethylbenzidine) was added at 80 μL/well and incubated at room temperature for 3 min. […] The absorbance was read at 450 nm using a microplate reader.

PDL1 protein [3] = molecular target: T2, PDL1 protein; assay: ELISA, coated PDL1 protein, OD450 [panel A]
How it was run: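 PDL1 protein coated at 2 μg/ml overnight at 4 °C, blocked with PBS/10% BSA; serially diluted bispecific antibodies or control IgG1LALA bound 1 h at 37 °C. Detection with HRP anti-human Fab secondary antibody and TMB for 3 min, stopped with sulfuric acid, absorbance at 450 nm.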

CD3E&D protein = molecular target: T3, CD3E&D protein (UniProt P04234 22-105); assay: ELISA, coated CD3E&D protein, OD450 [panel A]
T3 construct: Purchased from Acro; also called CD3 E&D antigens; CD3E&D antigen protein
T3 sequence (chain, as listed by the source limits assumed, chain 1 of 2): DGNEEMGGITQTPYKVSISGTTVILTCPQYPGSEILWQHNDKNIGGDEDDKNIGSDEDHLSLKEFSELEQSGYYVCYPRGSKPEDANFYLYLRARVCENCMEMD
T3 sequence (P04234 22-105 limits assumed, chain 2 of 2): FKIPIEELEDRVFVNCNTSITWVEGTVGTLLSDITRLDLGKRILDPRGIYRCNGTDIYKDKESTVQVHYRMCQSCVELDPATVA
Description: In this example, the binding properties of the CD3×Trop2 and CD3×PDL1 bispecific antibody (the production method and the amino acid sequences of the heavy and light chains were shown in Example 1) were detected by using ELISA. The CD3E&D, Trop2, or PDL1 protein was coated onto 96-well plates by inventors, and the strength of the signal after the addition of the antibody was used to determine the binding properties of the antibody and the corresponding protein.
(1) CD3E&D protein (purchased from Acro) was diluted to 2 μg/ml with PBS buffer, added to a 96-well plate at a volume of 100 μL/well, and placed at 4° C. overnight. The PBS buffer in the 96-well plate was aspirated, and the plate was washed 6 times with PBST (pH 7.2 PBS containing 0.1% Tween 20) buffer. Then, 200 μL/well PBS/10% BSA was added and incubated at 37° C. for 2 h for blocking. The blocking solution was removed, and the plate was washed 6 times with PBST. […] The absorbance was read at 450 nm using a microplate reader.

CD3 on CD8 T cells = molecular target: T4, CD3 on CD8 T cells (Homo sapiens (Human), UniProt P07766 23-207); assay: flow cytometry, CD8 T cells in PBMCs, binding ratio % [panel A]
T4 construct: Native CD3 complex on CD8 T cells among PBMCs; also called T cells (PBMCs gated with anti-human CD8 antibody)
T4 sequence (P07766 23-207 limits assumed): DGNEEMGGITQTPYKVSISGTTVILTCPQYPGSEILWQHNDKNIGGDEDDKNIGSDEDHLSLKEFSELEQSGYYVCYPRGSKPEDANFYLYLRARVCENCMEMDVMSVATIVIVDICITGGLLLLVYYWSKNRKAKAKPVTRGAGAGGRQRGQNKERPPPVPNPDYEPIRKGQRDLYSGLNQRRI
Method: (1) PBMCs were diluted to 2×10⁶/ml with PBS and added to a 1.5 ml EP tube at 100 μl/tube, goat serum was added thereto at 10 μl/tube. The cells were blocked at 4° C. for 30 min. The serially diluted bispecific antibodies, Cross3×Trop2, Cross303×Trop2, Cross307×Trop2, Cross308×Trop2, Cross309×Trop2, Cross310×Trop2, Cross311×Trop2, Cross312×Trop2, Cross313×Trop2, Cross314×Trop2, Cross316×Trop2, Cross317×Trop2, Cross318×Trop2, Cross323×Trop2, Cross325×Trop2, Cross326×Trop2, Cross3×PDL1, Cross313×PDL1, Cross316×PDL1, Cross325×PDL1, and control hIgG1LALA (purchased from Bio-Tech) were added and incubated at 4° C. for 30 min. 1 ml of PBS was added to the EP tube, followed by centrifugation at 3500 rpm for 5 min at 4° C. The supernatant was discarded, and the system was washed again with PBS. After centrifugation, the supernatant was discarded, and the cells were resuspended with PBS at 100 μl/tube. 1 μl/tube Alexa-647-labeled goat anti-human IgG secondary antibody (purchased from Jackson lab) and 0.5 μl/tube PerCP-Cy5.5-labeled anti-human CD8 antibody were added and incubated at 4° C. in the dark for 30 min. The cells were washed twice with PBS. After centrifugation, the supernatant was discarded. The cells were resuspended with 200 μl/tube of PBS and assay is performed by flow cytometry.

T1 sequence (Q9NZQ7 19-290 limits assumed): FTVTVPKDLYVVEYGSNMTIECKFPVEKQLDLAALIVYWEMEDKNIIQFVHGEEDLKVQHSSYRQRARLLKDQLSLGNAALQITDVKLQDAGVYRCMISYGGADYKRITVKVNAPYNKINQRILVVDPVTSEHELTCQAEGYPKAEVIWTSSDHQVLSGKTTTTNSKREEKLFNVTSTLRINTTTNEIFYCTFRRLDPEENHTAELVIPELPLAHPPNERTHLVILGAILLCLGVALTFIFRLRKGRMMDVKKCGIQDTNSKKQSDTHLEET

Binder	EC50 (read off the curve) [1] [µg/mL]	EC50 (read off the curve) (PDL1 protein [2]) [µg/mL]	EC50 (read off the curve) (PDL1 protein [3]) [µg/mL]	EC50 (read off the curve) (CD3E&D protein) [µg/mL]	EC50 (read off the curve) (CD3 on CD8 T cells) [µg/mL]
Cross3×PDL1 (bispecific antibody, human IgG1, kappa, L234A L235A, also called parent Cross3×PDL1 bispecific antibody) scFv: not shown heavy: QVQLVQSGAEVKKPGASVKVSCKASGYSFTGYYMHWVRQAPGQGLEWIGRINPYNGATTYSQNFKDRATMTVDTSISTAYMELSRLRSDDTAVYYCVPTGMGYFLMDYWGQGTLVTVSSASTKGPSVFPLAPSSKSTSGGTAALGCLVKDYFPEPVTVSWNSGALTSGVHTFPAVLQSSGLYSLSSVVTVPSSSLGTQTYICNVNHKPSNTKVDKKVEPKSCDKTHTCPPCPAPEAAGGPSVFLFPPKPKDTLMISRTPEVTCVVVDVSHEDPEVKFNWYVDGVEVHNAKTKPREEQYNSTYRVVSVLTVLHQDWLNGKEYKCKVSNKALPAPIEKTISKAKGQPREPQVCTLPPSREEMTKNQVSLSCAVKGFYPSDIAVEWESNGQPENNYKTTPPVLDSDGSFFLVSKLTVDKSRWQQGNVFSCSVMHEALHNHYTQKSLSLSPGK light: DIQLTQSPSFLSASVGDRVTITCKASQDVGSAVVWYQQKPGKAPKLLIYWASTRHTGVPSRFSGSGSGTEFTLTISSLQPEDFATYFCQQFTSYPTFGQGTKLEIKRTVAAPSVFIFPPSDEQLKSGTASVVCLLNNFYPREAKVQWKVDNALQSGNSQESVTEQDSKDSTYSLSSTLTLSKADYEKHKVYACEVTHQGLSSPVTKSFNRGEC	~1	~0.2			
Cross316×PDL1 (bispecific antibody, human IgG1, kappa, L234A L235A) scFv: not shown heavy: QVQLVQSGAEVKKPGASVKVSCKASGYSFTGYYMHWVRQAPGQGLEWIGRINPYNGATTYSQNFKDRATMTVDTSISTAYMELSRLRSDDTAVYYCVPTGMGYFLMDYWGQGTLVTVSSASTKGPSVFPLAPSSKSTSGGTAALGCLVKDYFPEPVTVSWNSGALTSGVHTFPAVLQSSGLYSLSSVVTVPSSSLGTQTYICNVNHKPSNTKVDKKVEPKSCDKTHTCPPCPAPEAAGGPSVFLFPPKPKDTLMISRTPEVTCVVVDVSHEDPEVKFNWYVDGVEVHNAKTKPREEQYNSTYRVVSVLTVLHQDWLNGKEYKCKVSNKALPAPIEKTISKAKGQPREPQVCTLPPSREEMTKNQVSLSCAVKGFYPSDIAVEWESNGQPENNYKTTPPVLDSDGSFFLVSKLTVDKSRWQQGNVFSCSVMHEALHNHYTQKSLSLSPGK light: DIQLTQSPSFLSASVGDRVTITCKASQDVGSAVVWYQQKPGKAPKLLIYWASTRHTGVPSRFSGSGSGTEFTLTISSLQPEDFATYFCQQFTSYPTFGQGTKLEIKRTVAAPSVFIFPPSDEQLKSGTASVVCLLNNFYPREAKVQWKVDNALQSGNSQESVTEQDSKDSTYSLSSTLTLSKADYEKHKVYACEVTHQGLSSPVTKSFNRGEC	~1		~0.2	~0.8	~0.2
